# Results from article PMC10914751.
# Target: Plk4 CPB (in vitro binding, Supplementary Fig. 3i)
# Sequence (O00444 whole entry): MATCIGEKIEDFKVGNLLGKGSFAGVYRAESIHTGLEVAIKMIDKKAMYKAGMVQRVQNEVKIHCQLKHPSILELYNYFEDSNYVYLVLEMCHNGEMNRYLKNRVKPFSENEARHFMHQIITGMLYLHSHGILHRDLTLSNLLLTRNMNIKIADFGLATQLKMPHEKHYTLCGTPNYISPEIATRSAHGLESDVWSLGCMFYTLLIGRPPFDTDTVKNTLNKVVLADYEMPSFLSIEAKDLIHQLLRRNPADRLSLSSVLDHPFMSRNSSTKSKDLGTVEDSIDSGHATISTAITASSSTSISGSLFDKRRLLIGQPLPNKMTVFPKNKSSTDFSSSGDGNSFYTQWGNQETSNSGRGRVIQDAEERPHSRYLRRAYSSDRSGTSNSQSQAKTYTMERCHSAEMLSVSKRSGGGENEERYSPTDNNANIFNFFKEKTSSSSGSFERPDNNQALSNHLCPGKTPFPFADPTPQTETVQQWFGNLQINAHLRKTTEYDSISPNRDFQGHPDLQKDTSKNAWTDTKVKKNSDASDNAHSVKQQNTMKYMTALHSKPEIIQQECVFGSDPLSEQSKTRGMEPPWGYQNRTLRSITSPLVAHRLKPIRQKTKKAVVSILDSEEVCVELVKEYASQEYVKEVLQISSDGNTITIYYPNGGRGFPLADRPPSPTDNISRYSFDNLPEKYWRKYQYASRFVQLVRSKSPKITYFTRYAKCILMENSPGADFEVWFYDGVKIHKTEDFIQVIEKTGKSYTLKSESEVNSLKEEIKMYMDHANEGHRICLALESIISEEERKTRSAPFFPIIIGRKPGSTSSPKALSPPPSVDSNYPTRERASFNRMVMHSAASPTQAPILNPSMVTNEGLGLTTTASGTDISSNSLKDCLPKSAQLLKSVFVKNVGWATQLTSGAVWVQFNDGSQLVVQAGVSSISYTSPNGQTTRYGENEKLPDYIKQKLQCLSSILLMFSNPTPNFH
substance,measurement,value
recombinant Vpr (from UniProt P12520 1-96) (natural protein),"in vitro kinase assay: trans-autophosphorylation of the SSTT motif (S698, S700, T704, T707) of GST-Plk4(1–836; ∆PB3) in the presence of Vpr•VprBP, but not Vpr(1–79)•VprBP; anti-p-SSTT immunoblot",1.8 fold
